Measurements published in patent publication US20140213513A1 (Sanofi, priority 2012, published 2014).
*1 amine or outer side, *2 acyl side, *3 side chain or, on linkers, in order; H or OH if unused. Where no end group is shown, it is not given here. Side-chain parts run from the residue outwards. [ ]: non-standard residue; d: D form. The star is where a group is joined. γGlu = O=C(O)[C@H](CCC(=O)[*:2])N[*:1]; Palmitoyl = CCCCCCCCCCCCCCCC(=O)*; Aib = CC(C)(N)C(=O)O

B1: exendin-4 peptide analogue SEQ ID NO: 21 (peptide)
peptide: Y[Aib]QGTFTSDLSIQK(Palmitoyl)EQRAA[Aib]EFIEWLKNTGPSSGAPPPS-NH2
modifications: N-terminus assumed
SMILES: CCCCCCCCCCCCCCCC(=O)NCCCC[C@H](NC(=O)[C@H](CCC(N)=O)NC(=O)[C@@H](NC(=O)[C@H](CO)NC(=O)[C@H](CC(C)C)NC(=O)[C@H](CC(=O)O)NC(=O)[C@H](CO)NC(=O)[C@@H](NC(=O)[C@H](Cc1ccccc1)NC(=O)[C@@H](NC(=O)CNC(=O)[C@H](CCC(N)=O)NC(=O)C(C)(C)NC(=O)[C@@H](N)Cc1ccc(O)cc1)[C@@H](C)O)[C@@H](C)O)[C@@H](C)CC)C(=O)N[C@@H](CCC(=O)O)C(=O)N[C@@H](CCC(N)=O)C(=O)N[C@@H](CCCNC(=N)N)C(=O)N[C@@H](C)C(=O)N[C@@H](C)C(=O)NC(C)(C)C(=O)N[C@@H](CCC(=O)O)C(=O)N[C@@H](Cc1ccccc1)C(=O)N[C@H](C(=O)N[C@@H](CCC(=O)O)C(=O)N[C@@H](Cc1c[nH]c2ccccc12)C(=O)N[C@@H](CC(C)C)C(=O)N[C@@H](CCCCN)C(=O)N[C@@H](CC(N)=O)C(=O)N[C@H](C(=O)NCC(=O)N1CCC[C@H]1C(=O)N[C@@H](CO)C(=O)N[C@@H](CO)C(=O)NCC(=O)N[C@@H](C)C(=O)N1CCC[C@H]1C(=O)N1CCC[C@H]1C(=O)N1CCC[C@H]1C(=O)N[C@@H](CO)C(N)=O)[C@@H](C)O)[C@@H](C)CC
B2: exendin-4 peptide analogue SEQ ID NO: 20 (peptide)
peptide: Y[Aib]EGTFTSDLSIQK([γGlu-Palmitoyl])EKRAA[Aib]EFIEWLKRAGPSSGAPPPS-NH2
modifications: N-terminus assumed
SMILES: CCCCCCCCCCCCCCCC(=O)N[C@@H](CCC(=O)NCCCC[C@H](NC(=O)[C@H](CCC(N)=O)NC(=O)[C@@H](NC(=O)[C@H](CO)NC(=O)[C@H](CC(C)C)NC(=O)[C@H](CC(=O)O)NC(=O)[C@H](CO)NC(=O)[C@@H](NC(=O)[C@H](Cc1ccccc1)NC(=O)[C@@H](NC(=O)CNC(=O)[C@H](CCC(=O)O)NC(=O)C(C)(C)NC(=O)[C@@H](N)Cc1ccc(O)cc1)[C@@H](C)O)[C@@H](C)O)[C@@H](C)CC)C(=O)N[C@@H](CCC(=O)O)C(=O)N[C@@H](CCCCN)C(=O)N[C@@H](CCCNC(=N)N)C(=O)N[C@@H](C)C(=O)N[C@@H](C)C(=O)NC(C)(C)C(=O)N[C@@H](CCC(=O)O)C(=O)N[C@@H](Cc1ccccc1)C(=O)N[C@H](C(=O)N[C@@H](CCC(=O)O)C(=O)N[C@@H](Cc1c[nH]c2ccccc12)C(=O)N[C@@H](CC(C)C)C(=O)N[C@@H](CCCCN)C(=O)N[C@@H](CCCNC(=N)N)C(=O)N[C@@H](C)C(=O)NCC(=O)N1CCC[C@H]1C(=O)N[C@@H](CO)C(=O)N[C@@H](CO)C(=O)NCC(=O)N[C@@H](C)C(=O)N1CCC[C@H]1C(=O)N1CCC[C@H]1C(=O)N1CCC[C@H]1C(=O)N[C@@H](CO)C(N)=O)[C@@H](C)CC)C(=O)O
B3: exendin-4 peptide analogue SEQ ID NO: 19 (peptide)
peptide: Y[Aib]QGTFTSDLSIQK([γGlu-Palmitoyl])EKRLA[Aib]EFIEWLKNTGPSSGAPPPS-NH2
modifications: N-terminus assumed
SMILES: CCCCCCCCCCCCCCCC(=O)N[C@@H](CCC(=O)NCCCC[C@H](NC(=O)[C@H](CCC(N)=O)NC(=O)[C@@H](NC(=O)[C@H](CO)NC(=O)[C@H](CC(C)C)NC(=O)[C@H](CC(=O)O)NC(=O)[C@H](CO)NC(=O)[C@@H](NC(=O)[C@H](Cc1ccccc1)NC(=O)[C@@H](NC(=O)CNC(=O)[C@H](CCC(N)=O)NC(=O)C(C)(C)NC(=O)[C@@H](N)Cc1ccc(O)cc1)[C@@H](C)O)[C@@H](C)O)[C@@H](C)CC)C(=O)N[C@@H](CCC(=O)O)C(=O)N[C@@H](CCCCN)C(=O)N[C@@H](CCCNC(=N)N)C(=O)N[C@@H](CC(C)C)C(=O)N[C@@H](C)C(=O)NC(C)(C)C(=O)N[C@@H](CCC(=O)O)C(=O)N[C@@H](Cc1ccccc1)C(=O)N[C@H](C(=O)N[C@@H](CCC(=O)O)C(=O)N[C@@H](Cc1c[nH]c2ccccc12)C(=O)N[C@@H](CC(C)C)C(=O)N[C@@H](CCCCN)C(=O)N[C@@H](CC(N)=O)C(=O)N[C@H](C(=O)NCC(=O)N1CCC[C@H]1C(=O)N[C@@H](CO)C(=O)N[C@@H](CO)C(=O)NCC(=O)N[C@@H](C)C(=O)N1CCC[C@H]1C(=O)N1CCC[C@H]1C(=O)N1CCC[C@H]1C(=O)N[C@@H](CO)C(N)=O)[C@@H](C)O)[C@@H](C)CC)C(=O)O
B4: exendin-4 peptide analogue SEQ ID NO: 22 (peptide)
peptide: Y[Aib]QGTFTSDLSIQK([γGlu-Palmitoyl])EKRA[Aib][Aib]EFIEWLKNTGPSSGAPPPS-NH2
modifications: N-terminus assumed
SMILES: CCCCCCCCCCCCCCCC(=O)N[C@@H](CCC(=O)NCCCC[C@H](NC(=O)[C@H](CCC(N)=O)NC(=O)[C@@H](NC(=O)[C@H](CO)NC(=O)[C@H](CC(C)C)NC(=O)[C@H](CC(=O)O)NC(=O)[C@H](CO)NC(=O)[C@@H](NC(=O)[C@H](Cc1ccccc1)NC(=O)[C@@H](NC(=O)CNC(=O)[C@H](CCC(N)=O)NC(=O)C(C)(C)NC(=O)[C@@H](N)Cc1ccc(O)cc1)[C@@H](C)O)[C@@H](C)O)[C@@H](C)CC)C(=O)N[C@@H](CCC(=O)O)C(=O)N[C@@H](CCCCN)C(=O)N[C@@H](CCCNC(=N)N)C(=O)N[C@@H](C)C(=O)NC(C)(C)C(=O)NC(C)(C)C(=O)N[C@@H](CCC(=O)O)C(=O)N[C@@H](Cc1ccccc1)C(=O)N[C@H](C(=O)N[C@@H](CCC(=O)O)C(=O)N[C@@H](Cc1c[nH]c2ccccc12)C(=O)N[C@@H](CC(C)C)C(=O)N[C@@H](CCCCN)C(=O)N[C@@H](CC(N)=O)C(=O)N[C@H](C(=O)NCC(=O)N1CCC[C@H]1C(=O)N[C@@H](CO)C(=O)N[C@@H](CO)C(=O)NCC(=O)N[C@@H](C)C(=O)N1CCC[C@H]1C(=O)N1CCC[C@H]1C(=O)N1CCC[C@H]1C(=O)N[C@@H](CO)C(N)=O)[C@@H](C)O)[C@@H](C)CC)C(=O)O
B5: exendin-4 peptide analogue SEQ ID NO: 23 (peptide)
peptide: Y[Aib]QGTFTSDLSIQK([γGlu-Palmitoyl])EKRAA[Aib]YFIEWLKNTGPSSGAPPPS-NH2
modifications: N-terminus assumed
SMILES: CCCCCCCCCCCCCCCC(=O)N[C@@H](CCC(=O)NCCCC[C@H](NC(=O)[C@H](CCC(N)=O)NC(=O)[C@@H](NC(=O)[C@H](CO)NC(=O)[C@H](CC(C)C)NC(=O)[C@H](CC(=O)O)NC(=O)[C@H](CO)NC(=O)[C@@H](NC(=O)[C@H](Cc1ccccc1)NC(=O)[C@@H](NC(=O)CNC(=O)[C@H](CCC(N)=O)NC(=O)C(C)(C)NC(=O)[C@@H](N)Cc1ccc(O)cc1)[C@@H](C)O)[C@@H](C)O)[C@@H](C)CC)C(=O)N[C@@H](CCC(=O)O)C(=O)N[C@@H](CCCCN)C(=O)N[C@@H](CCCNC(=N)N)C(=O)N[C@@H](C)C(=O)N[C@@H](C)C(=O)NC(C)(C)C(=O)N[C@@H](Cc1ccc(O)cc1)C(=O)N[C@@H](Cc1ccccc1)C(=O)N[C@H](C(=O)N[C@@H](CCC(=O)O)C(=O)N[C@@H](Cc1c[nH]c2ccccc12)C(=O)N[C@@H](CC(C)C)C(=O)N[C@@H](CCCCN)C(=O)N[C@@H](CC(N)=O)C(=O)N[C@H](C(=O)NCC(=O)N1CCC[C@H]1C(=O)N[C@@H](CO)C(=O)N[C@@H](CO)C(=O)NCC(=O)N[C@@H](C)C(=O)N1CCC[C@H]1C(=O)N1CCC[C@H]1C(=O)N1CCC[C@H]1C(=O)N[C@@H](CO)C(N)=O)[C@@H](C)O)[C@@H](C)CC)C(=O)O

biological target: T1, human GIP receptor (human, UniProt P48546 22-466); test: cell-based or functional assay
T1 sequence (looked up): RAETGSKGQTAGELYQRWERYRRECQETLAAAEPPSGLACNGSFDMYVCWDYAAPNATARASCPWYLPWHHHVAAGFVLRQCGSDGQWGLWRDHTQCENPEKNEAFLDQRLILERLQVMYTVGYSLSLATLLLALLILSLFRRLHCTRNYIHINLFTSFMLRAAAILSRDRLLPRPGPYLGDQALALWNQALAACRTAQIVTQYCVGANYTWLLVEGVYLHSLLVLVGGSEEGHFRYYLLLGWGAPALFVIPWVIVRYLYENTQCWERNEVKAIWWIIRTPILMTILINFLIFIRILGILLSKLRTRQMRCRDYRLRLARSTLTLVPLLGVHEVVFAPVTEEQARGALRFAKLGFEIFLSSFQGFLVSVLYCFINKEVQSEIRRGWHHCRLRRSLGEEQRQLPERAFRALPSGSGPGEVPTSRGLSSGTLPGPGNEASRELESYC

Row | Binder | EC50 hGIP R [nM]
1 | B1 | 0.189
2 | B2 | 0.0163
3 | B3 | 0.0915
4 | B4 | 0.102
5 | B5 | 0.135

biological target: human GLP-1 receptor (human, UniProt P43220 24-463); test: cell-based or functional assay

Row | Binder | EC50 hGLP-1 R [nM]
6 | B1 | 0.037
7 | B2 | 0.0082
8 | B3 | 0.0085
9 | B4 | 0.0085
10 | B5 | 0.0092

biological target: human glucagon receptor (human, UniProt P47871 26-477); test: cell-based or functional assay
Sequence (P47871 26-477): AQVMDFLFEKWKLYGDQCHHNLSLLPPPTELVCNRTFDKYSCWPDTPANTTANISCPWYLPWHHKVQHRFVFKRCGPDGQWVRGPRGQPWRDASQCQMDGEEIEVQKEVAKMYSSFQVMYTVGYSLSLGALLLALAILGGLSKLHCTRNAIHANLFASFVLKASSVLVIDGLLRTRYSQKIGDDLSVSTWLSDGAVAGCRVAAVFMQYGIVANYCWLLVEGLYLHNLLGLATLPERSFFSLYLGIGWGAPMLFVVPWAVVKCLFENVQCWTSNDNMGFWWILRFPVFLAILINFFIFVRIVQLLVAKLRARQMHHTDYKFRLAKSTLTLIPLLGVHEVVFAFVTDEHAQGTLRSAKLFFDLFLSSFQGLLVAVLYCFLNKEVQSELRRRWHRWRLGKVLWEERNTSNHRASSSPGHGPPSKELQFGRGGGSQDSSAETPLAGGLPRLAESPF

Row | Binder | EC50 hGLUC R [nM]
11 | B1 | 0.674
12 | B2 | 18.2
13 | B3 | 0.137
14 | B4 | 2.21
15 | B5 | 0.312
